From US6924101B2, “Methods for identifying anti-microbial agents” (priority 1997, dated 2005)

Columns and labels:
[1] = system: E. coli DH5α; test: Growth curves (OD450) in liquid LB media with or without 1 mM IPTG (FIG. 7); format: cell-based
Experimental: FIG. 7 is a graph showing growth curves of E. coli DH5α containing pJB37, pJB57 and pJB59 in liquid media in the presence and absence of IPTG.
Inhibition of bacterial growth after IPTG induction. Growth curves were carried out by back diluting cultures 1:20 into fresh media with or without 1 mM IPTG and measuring the OD450 every 30 minutes (min). To study transcriptional induction in exponential phase, cultures were diluted 1:10^6 or as indicated. The viability (CFU/ml) was determined over time by plating aliquots of the culture on agar with or without IPTG.
Kinetics of inhibition during exponential growth by antisense RNA. The kinetics of antisense inhibition was examined for strains carrying pJB37, pJB53, pJB57 or pJB59. Overnight cultures of each strain were diluted 1:20 into LB media containing 1 mM IPTG or LB media without IPTG. The OD450 was then measured on the liquid cultures. […] After induction of antisense RNA expression, a few generations of cell division presumably are required in order to dilute endogenous gene product present at the initiation of induction.

[2] = system: E. coli DH5α; test: Colony formation on M9 agar with or without 1 mM IPTG (FIG. 6); format: cell-based; conditions: M9 agar containing 1 mM IPTG vs without IPTG
Experimental: FIG. 6 is a bar graph showing the effect of inducing lepB, ddlB, viaA or orf1 antisense RNA expression on colony formation in E. coli DH5α. Striped bars indicate colony forming units (CFUs) per ml of culture for strains grown on semi-solid media in the absence of the inducer IPTG. Solid bars indicate CFUs/ml for strains grown in the presence of IPTG.
Cell proliferation for each strain was measured by diluting overnight cultures 1:10^6 into M9 medium. After growth to an OD450 of 0.2, aliquots of each culture were plated on M9 agar without IPTG or M9 agar containing 1 mM IPTG. […] Colony formation by cells carrying pJB57 was inhibited more than 100 fold. The colony formation of strains carrying pJB59 was inhibited more than 1000 fold.

[3] = system: E. coli DH5α; test: Effect of different concentrations of inducer IPTG on viability (FIG. 9); format: cell-based
Experimental: FIG. 9 is a graph showing the effect of varying concentrations of inducer on the viability of DH5α containing pJB37 (panel A) or pJB53 (panel B).
Effect of different concentrations of transcriptional inducer. Experiments were carried out to determine the effect of different concentrations of the inducer IPTG on bacterial growth and viability with the two clones where antisense RNA is bacteriocidal. Overnight cultures were diluted 1:100 into LB media containing 0, 10, 100 500 or 1000 micro molar (μM) IPTG. At the time of induction and every 2 hours thereafter, aliquots were plated on LB/ampicillin agar to determine CFUs/ml.

[4] = system: Salmonella typhimurium; test: Growth of transformants plated on LB with or without 1 mM IPTG; format: cell-based
Experimental: In order to examine the effectiveness of the antisense RNAs in a related species, Salmonella typhimurium was transformed with pJB37 or pJB53. The ampicillin-resistant transformants were plated on LB with or without 1 mM IPTG.

[5] = system: E. coli DH5α; test: Viability (CFUs/ml) over time after induction of antisense RNA expression (FIG. 8); format: cell-based
Experimental: FIG. 8 is a graph showing the viability of DH5α strains at various times after induction of antisense RNA expression. Strains contained the following plasmids: squares: pJB37; diamonds: pJB53; circles: pJB57; and triangles; pJB59.
Inhibition of viability by antisense RNA. The viability over time of the four strains expressing the antisense RNAs described above was also examined. Overnight cultures of each strain were diluted 1:100 into LB medium containing 1 mM IPTG. Aliquots of each culture were plated on LB agar containing ampicillin at intervals thereafter to determine CFUs/ml.

[6] = system: JRG58201; test: Growth and viability of ampG null strain after IPTG induction; format: cell-based, E. coli
From the text: Lethality of pJB59 antisense RNA requires inhibition of orf1. The polycistronic mRNA that encodes ampG in E. coli has an upstream ORF, termed orf1 herein: The antisense RNA made by pJB59 is complementary to orf1. In order to determine whether translational inhibition of orf1 or of ampG was the cause of the lethality of pJB59 antisense RNA, pJB59 was transformed into the ampG null strain, JRG58201. Jacobs, C., et al, EMBO J. 13:4684-4694 (1993). JRG58201 has a defect in the ampG gene but has no known defect in the orf1 gene.

Molecule	time at which cell mass began to decrease ([1]; LB, 1 mM IPTG)	cell lysis, microscopic examination ([1]; after induction of antisense RNA)	effect on cell growth or colony formation when induced with IPTG [2]	effect on colony forming ability ([3]; 10 μm IPTG)	anti-proliferative effect ([3]; 500 μm IPTG)	effect on the time of cell death of a 2 fold increase of IPTG ([3]; 1000 μm IPTG)	growth after induction of the antisense RNA [4]	bacteriocidal or bacteriostatic [5]	reduction of viability ([5]; 6 hours after induction, 1 mM IPTG, LB)	time after induction until significant effect on the increase in cell mass (OD450) ([1]; LB, 1 mM IPTG)	time after which cell mass stopped increasing (did not decrease) ([1]; LB, 1 mM IPTG)	growth and viability after IPTG induction [6]	inhibition of colony formation [2]	growth and viability when antisense RNA is expressed ([5]; 1 mM IPTG, LB)
pJB53: pLEX5BA with a 714 bp PstI/HindIII fragment of viaA in antisense orientation; expresses antisense RNA (SEQ ID NO: 4) (nucleic acid, expressed from plasmid pLEX5BA; Escherichia coli viaA) antisense: CUGCAGGCUGAGGUGUUGCCCUUACAAAUGCAACAACGACAUGGAUUACAACACCCUCAUAAACAAAGGGCAAUCACCUGAUCUAAGCUCUUACCUAUGACAGUGAUAGGUUAUGCCUUUUACUCGACUUUUGCACUGACUGAAAAGGACAAAUUAAUGUUAAAAAAGAUACUUUUACUGGCUCUGCUUCCUGCAAUCGCCUUCGCAGAGGAACUUCCUGCUCCAGUAAAAGCGAUUGAAAAACAGGGCAUUACAAUCAUCAAAACAUUCGAUGCCCCCGGAGGAAUGAAAGGUUAUCUCGGAAAGUAUCAGGAUAUGGGCGUCACCAUCUACCUGACUCCAGAUGGUAAGCACGCUAUCUCUGGUUACAUGUACAACGAGAAAGGUGAAAACCUGAGUAACACACUUAUCGAAAAAGAAAUUUACGCACCAGCCGGACGCGAAAUGUGGCAACGGAUGGAACAAUCCCACUGGCUCCUCGACGGUAAAAAAGAUGCGCCGGUCAUUGUCUACGUCUUCGCCGAUCCGUUCUGCCCAUAUUGUAAACAGUUCUGGCAGCAGGCGCGCCCGUGGGUAGAUUCUGGCAAAGUGCAAUUAAGAACAUUGUUGGUUGGGGUUAUCAAGCCAGAAAGCCCGGCGACAGCAGCGGCAAUUCUUGCCUCCAAAGAUCCCGCAAAAACCUGGCAACAAUAUGAAGCCUCUGGUGGCAAGCUU	about 4 hours	did not	unable to form colonies	minimal effect	near maximal	little effect	greatly inhibited	bacteriocidal	about 3 logs					
pJB59: pLEX5BA with a 451 bp EcoRI/BamHI fragment of orf1/ampG in antisense orientation; expresses antisense RNA (SEQ ID NO: 7) (nucleic acid, expressed from plasmid pLEX5BA; Escherichia coli ampG) antisense: GAAUUCGUGGAUGCUGGUGUCCUGAGACAUAUCAGCGAUGGUAUCGGUCAGCACACUGUUAACCGCAUCGGCGAUAUUUUUGUUGGAGGCCUGGAACGCACCUUCAACGUUGUAGCUGGCACGAUAGUUUUUGGUCAUUUUGUUGCCAUUCUGCGCGGUAGCGAUGAUGGCGAUAUCCGCUUUGGUCGCGAUGUUGUAGCGCACGUUGCCCUGGGACACGUCAGCAUACAGUUGGCUAACGAUGAUUUGCAGAUUAACCGGGCCAUUCGGACCAACCAUGUAACCACGCGCGGUCAUCUGUUUUUCCAGCACUUCUUGCAGCAGGAAACGCAGAUCGCGGGAGGCGGUCAGGGUAACGAUUUGAUUAUCGCGGGUGACUUUUGCCAGCGCCUGAUCGGUACGCUGAUCGGCACCAUUAAUGCUUACGGUGACGCCCAUCAGGCUUGGAUCC								bacteriostatic		about 3 hours	about 3 hours	inhibited	more than 1000 fold	growth is inhibited but viability is not reduced
